The values below come from the RNAGym collection of RNA variant scans (doi:10.1093/molbev/msab373).

The chains are these.
B1: Azoarcus group I ribozyme (parent)
chain: GUGCCUUGCGCCGGGAAACCACGCAAGGGAUGGUGUCAAAUUCGGCGAAACCUAAGCGCCCGCCCGGGCGUAUGGCAACGCCGAGCCAAGCUUCGGCGCCUGCGCCGAUGAAGGUGUAGAGACUAGACGGCACCCACCUAAGGCAAACGCUAUGGUGAAGGCAUAGUCCAGGGAGUGGCGAAAGUCACACAAACCGG

In the data set the parent is B1. As to the kind of experiment: reverse-splicing fitness (ratio to wild type); higher = more active; in vitro selection; Mg2+ level not given. The procedure, abridged:
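An in vitro group I ribozyme library with randomized positions was T7-transcribed and gel-purified. In triplicate, 10 pmol RNA in EPPS pH 7.5 was reacted with 50 pmoles of a 30-nt RNA substrate for 1 h at 37 °C across several added MgCl2 levels (1–48 mM), then stopped with EDTA. Products were reverse transcribed from a substrate-complementary primer, PCR-amplified and sequenced (HiSeq 4000). Fitness is a variant's read proportion after selection over that before, normalised to wild type.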
Consider A111C A120U A145U C169U, for which the reverse-splicing fitness amounted to 0.0751.

For A111C A120U A145U C169G, the reverse-splicing fitness was determined as 0.0574.

In the case of A111C A120U A145U C169A, the reverse-splicing fitness is 0.00546.

In the case of A111C A120U A145C C150G C169G, the reverse-splicing fitness came out at 0.00714.

Turning to A111C A120U A145C C150G C169A, the reverse-splicing fitness turned out to be 0.00389.

Take A111C A120U A145C C150G C169U: the reverse-splicing fitness stood at 0.0105.

Regarding A111C A120G C150U C169A, the reverse-splicing fitness amounted to 0.0604.

Consider A111C A120G C150U C169G, for which the reverse-splicing fitness is 0.112.

Turning to A111C A120G C150U C169U, the reverse-splicing fitness was found to be 0.0919.

As to A111C A120U A145G C150A C169G, the reverse-splicing fitness was determined as 0.0103.

With A111C A120U A145G C150A C169U, the reverse-splicing fitness was 0.0133.

For A111C A120U A145G C150A C169A, the reverse-splicing fitness came to 0.0061.

Consider A111C A120G C150A C169G, for which the reverse-splicing fitness came to 0.0242.

Consider A111C A120G C150A C169A, for which the reverse-splicing fitness came out at 0.0171.

In the case of A111C A120G C150A C169U, the reverse-splicing fitness is 0.0203.

Regarding A111C A120G C150U U176C, the reverse-splicing fitness is 0.0344.

Consider A111C A120G C150U U176A, for which the reverse-splicing fitness came out at 0.0245.

In the case of A111C A120G C150U U176G, the reverse-splicing fitness is 0.00599.

For A111C A120U C150A U176A, the reverse-splicing fitness worked out at 0.0268.

As to A111C A120U C150A U176C, the reverse-splicing fitness was 0.0376.

In the case of A111C A120U C150A U176G, the reverse-splicing fitness turned out to be 0.0153.

For A111C A120U A145C C150U C169U U176G, the reverse-splicing fitness is 0.00251.

For A111C A120U A145C C150U C169U U176C, the reverse-splicing fitness is 0.00414.

As for A111C A120U A145C C150U C169U U176A, the reverse-splicing fitness was determined as 0.00478.

As to A111C A120G A145U U176A, the reverse-splicing fitness is 0.0392.

With A111C A120G A145U U176G, the reverse-splicing fitness worked out at 0.00568.

Consider A111C A120G A145U U176C, for which the reverse-splicing fitness is 0.0406.

For the variant A111C A120U A145C C150U C169A U176G, the reverse-splicing fitness is 0.00188.

In the case of A111C A120U A145C C150U C169A U176A, the reverse-splicing fitness was 0.00274.

A111C A120U A145C C150U C169A U176C: the reverse-splicing fitness was found to be 0.00249.

As to A111C A120G A145U C169A U176C, the reverse-splicing fitness stood at 0.0182.

Turning to A111C A120G A145U C169A U176G, the reverse-splicing fitness is 0.0051.

Take A111C A120G A145U C169A U176A: the reverse-splicing fitness was found to be 0.0166.

Regarding A111C A120U A145U C150U, the reverse-splicing fitness came out at 0.491.

Take A111C A120U A145U C150A: the reverse-splicing fitness worked out at 0.0636.

In the case of A111C A120U A145U C150G, the reverse-splicing fitness is 0.0737.

With A111C A120U C150A C169A U176G, the reverse-splicing fitness was determined as 0.00239.

Regarding A111C A120U C150A C169A U176C, the reverse-splicing fitness was 0.00383.

Take A111C A120U C150A C169A U176A: the reverse-splicing fitness amounted to 0.00602.

Take A111C A120U A145U C150G C169A: the reverse-splicing fitness came to 0.00366.

Turning to A111C A120U A145U C150G C169G, the reverse-splicing fitness was 0.00663.

Consider A111C A120U A145U C150G C169U, for which the reverse-splicing fitness was 0.00794.

As for A111C A120U A145U C150U C169U U176C, the reverse-splicing fitness was found to be 0.0142.

With A111C A120U A145U C150U C169U U176G, the reverse-splicing fitness was determined as 0.00224.

Regarding A111C A120U A145U C150U C169U U176A, the reverse-splicing fitness came to 0.00859.

Consider A111C A120G C150U C169U U176G, for which the reverse-splicing fitness was 0.00549.

For A111C A120G C150U C169U U176A, the reverse-splicing fitness was 0.0337.

A111C A120G C150U C169U U176C: the reverse-splicing fitness was 0.0371.

In the case of A111C A120G A145U C150U C169G, the reverse-splicing fitness amounted to 0.133.

Take A111C A120G A145U C150U C169U: the reverse-splicing fitness amounted to 0.106.

Regarding A111C A120U A145G C150U C169G U176C, the reverse-splicing fitness was 0.00994.

On to A111C A120U A145G C150U C169G U176G, for which the reverse-splicing fitness is 0.00262.

Consider A111C A120U A145G C150U C169G U176A, for which the reverse-splicing fitness was determined as 0.0074.

As for A111C A120U C169A, the reverse-splicing fitness was 0.00479.

Regarding A111C A120G C150U C169G U176C, the reverse-splicing fitness worked out at 0.0349.

Take A111C A120G C150U C169G U176G: the reverse-splicing fitness was 0.00581.

Take A111C A120G C150U C169G U176A: the reverse-splicing fitness amounted to 0.0233.

On to A111C A120U A145G C150G C169G, for which the reverse-splicing fitness was 0.0117.

Consider A111C A120U A145G C150G C169U, for which the reverse-splicing fitness was 0.0135.

For the variant A111C A120U A145G C150G C169A, the reverse-splicing fitness amounted to 0.00873.

Regarding A111C A120G A145U C150U U176G, the reverse-splicing fitness stood at 0.00526.

Take A111C A120G A145U C150U U176C: the reverse-splicing fitness is 0.0338.

Consider A111C A120G A145U C150U U176A, for which the reverse-splicing fitness was 0.0265.

In the case of A111C A120U A145U C150G C169U U176C, the reverse-splicing fitness is 0.00398.

On to A111C A120U A145U C150G C169U U176A, for which the reverse-splicing fitness came to 0.00284.

For A111C A120U A145U C150G C169U U176G, the reverse-splicing fitness turned out to be 0.00279.

Consider A111C A120U C150A C169U, for which the reverse-splicing fitness came out at 0.00953.

Consider A111C A120U C150A C169A, for which the reverse-splicing fitness stood at 0.00557.

With A111C A120U C150A C169G, the reverse-splicing fitness came to 0.00691.

Turning to A111C A120G C150G C169G U176A, the reverse-splicing fitness was 0.0066.

Consider A111C A120G C150G C169G U176C, for which the reverse-splicing fitness worked out at 0.00473.

On to A111C A120G C150G C169G U176G, for which the reverse-splicing fitness is 0.00457.

A111C A120U A145G C150A C169U U176A: the reverse-splicing fitness stood at 0.00876.

Regarding A111C A120U A145G C150A C169U U176C, the reverse-splicing fitness came out at 0.00638.

As for A111C A120U A145G C150A C169U U176G, the reverse-splicing fitness amounted to 0.00263.

Take A111C A120U A145U C150U C169G: the reverse-splicing fitness was 0.0348.

In the case of A111C A120U A145U C150U C169U, the reverse-splicing fitness came out at 0.0452.

Take A111C A120U A145U C150U C169A: the reverse-splicing fitness turned out to be 0.00426.

As for A111C A120U A145C C150U C169G U176C, the reverse-splicing fitness was found to be 0.00324.

In the case of A111C A120U A145C C150U C169G U176G, the reverse-splicing fitness came to 0.00229.

In the case of A111C A120U A145C C150U C169G U176A, the reverse-splicing fitness was found to be 0.00383.

Regarding A111C A120G A145U C150U C169U U176C, the reverse-splicing fitness stood at 0.0353.

For A111C A120G A145U C150U C169U U176A, the reverse-splicing fitness is 0.034.
